The results in this text go back to PMC4757414, “Evidences of Changes in Surface Electrostatic Charge Distribution during Stabilization of HPV16 Virus-Like Particles” (PLoS ONE, 2016).

The data set concerns the molecule itself. Description: static light scattering; Debye plot (Zimm equation) of purified HPV16 VLPs in dilute solution, initial (0 h) and final (48 h) states; T = 298 K; 0.5 M NaCl, 50 mM sodium citrate, 1 mM CaCl2, pH 6.

B1: HPV16 L1 protein (assembled into HPV16 virus-like particles) (natural protein)
chain: MSLWLPSEATVYLPPVPVSKVVSTDEYVARTNIYYHAGTSRLLAVGHPYFPIKKPNNNKILVPKVSGLQYRVFRIHLPDPNKFGFPDTSFYNPDTQRLVWACVGVEVGRGQPLGVGISGHPLLNKLDDTENASAYAANAGVDNRECISMDYKQTQLCLIGCKPPIGEHWGKGSPCTNVAVNPGDCPPLELINTVIQDGDMVDTGFGAMDFTTLQANKSEVPLDICTSICKYPDYIKMVSEPYGDSLFFYLRREQMFVRHLFNRAGAVGENVPDDLYIKGSGSTANLASSNYFPTPSGSMVTSDAQIFNKPYWLQRAQGHNNGICWGNQLFVTVVDTTRSTNMSLCAAISTSETTYKNTNFKEYLRHGEEYDLQFIFQLCKITLTADVMTYIHSMNSTILEDWNFGLQPPPGGTLEDTYRFVTSQAIACQKHTPPAPKEDPLKKYTFWEVNLKEKFSADLDQFPLGRKFLLQAGLKAKPKFTLGKRKATPTTSSTSTTAKRKKRKL
notes: major capsid protein L1 (~55 kDa) of human papillomavirus type 16; also called HPV L1; HPV16 VLPs; source: insect cells infected with HPV L1 expressing baculovirus, purified (chromatography and filtration, at least 95% purity); provided by Sino Biological, Inc
Take B1: the binding result is listed as “binds”.
